Measurements taken from the domain aggregation screens of Martell et al. (2025).

Experiment: soluble fraction after stress (log2 fold change); higher = more stays soluble; pooled small domains, quantitative proteomics
Conditions: stress: 50 degC
How it was run: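 After stress at 50°C, the amount of each protein still soluble was measured. This was done on pooled custom libraries of small protein domains, using high-throughput quantitative proteomics. The figure given is a base-two log fold change and stands for aggregation propensity, with higher values meaning more protein stays in solution.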

Sequence	soluble fraction (log2)
HMDQTIFFGQQKAINNLSTDAGLSATELDEYLKKRYKRPLYQLTQAEGAEIIKGFQDGALSRSSILDYTK	-0.00165
HMRGVDRPLTLPRHWRRNAGRLVKVTLANGSAVTGRVLDPGEERVTLEVSGERHEVAYADVKKALVQVEF	-0.169
HMRNANENTLKDLPVAVPNIHVSNIEEKKDFHLIQLEYSQEFDPREDLFNFAVNSSWVILKMTPT	0.422
HMHYALTVDFPAALEARIDPAHRAALRGVLAHDPRPSYQSDPERLYGVAFAGKNVKFTVEDGVLTVRKIEE	0.0218
HMSGEMGIIVAKRLPIRSEPDELATRAFVLKAGTRVKIVKHLNGWLEIVHDGKAGYVQDLEVYVRVIG	-0.524
HMSPQPPNQEAVRTRILDQAAHLFLTIGYAETTVRRIAGAVGIKAASLYHHFGSKDEVFESILIR	0.0413
HMDTDVFLMDLRGESRDYAEEVLINNNLEVKVIILPFSKRHYPGKVVEMRPSPFTKVKKGRIITLSVAGN	-3.71
HMDAVTPVLSRIRDARFKRMVLPGDEIEISVTLIDTIGKFFNLSGQIRNKDKISLTVNFALALV	-0.0104
HMSKLSLREIVKKFEEQIIQLHKRGLNHSEISREIVTKNSIDLGDSHIDSLRRAISVHLQTP	-0.0999
HMGYVQLTAREKEVLQGLVDGASYKMIAAKLDIRFGTVHTHVKNIYEKLHVNSASEAVVKAIRQRL	-2.46
HMELTKAELEVMQILWKLKKAFVGDILDRMVEPKPAYNTVSTVVRLLEKKGVVGHESFGKSHRYYPL	-3.22
HMEKIRIQKYLSERGVMSRRAADSALAEGRIAVNGVTARPGDKIDPSSDTLTIDGRIVTTGTAP	0.00802
HMQSTVSTHQKTLALDTAQSGIPVFPVSSTHKRPLTDHGYKDATADADAVRKIWQQFPSAFV	0.0922
HMDIDGVSENGRLILAALDKEALDFDTLAAETGIQESRLRTELTLLEIRKLIMKLPGQRYRLI	0.0016
HMALYSEQVSEIEKALMSLPPKYQLVMLLLYAEDLKYEQIAEILDEPIGTVKTKIHRARKILKERF	-0.46
HMNNTIKFSVDSQNSGKRLDIFLTENIKNYTRSFLKKLIENRQVKLNNNFIISPSERVKFKDQININILQ	-1.17
HMVSVGDIFAGRIISNENGHLLLQLLDGSKISAQTVTDLKYNIGDVLNLEIIEEKQGLIFVRQT	-0.516
HMTAVNEHELMNQFKLSLGYANGDDPQTKLSTDEKNDFMRFKEWATAMTKDSKMGKDPDYLKKLAVQWTLK	0.214
HMKHSEAIELGKRMLSQALQDVSLVLKKIPEERLQAVAAELNLKTPDELFEKIGLGERLAALVARRLLP	-0.207
HMHVLAVDEALHKLTELNELHAKIVEMRFFSGMTVQEVADELGVSKRKIESEWTMIKAWLRKELN	-0.665
HMLKETGVITASVLNVREDIGTSSNIVAQLKKGMEVNILESRAIAGSETWYRIDAGSIKGWIFGDYI	-3.62
HMVLSVRERMGIVLEKVNTETFTDFKELFTVEEGRAGAIVSLLAILQLMKDSLIQLVQNEPNGPIYVKAA	-0.673
HMSNGYVTAKTTVNVRKSASESGERLGVIYQGDKLELVMNQADGWTKVKYKGQTAYVKSEFM	-0.6
HMIDYIKYTVDGKTYELINNWDGTWSRELEAPLVAGRYDLLLEISQNGLVTYIDSSDPRYEFYLDVI	-3.12
HMEFLDLEIDVDATDGRLLAFLAAKGEVVSQTFNDTIITVRVRMPTGAMGQVHRSALAIRPA	-0.507
HMASLSITVNGETRRAAPGSIADLVRAIGLDPAKVAVERNGEIAPRSTLADVALADGDVLEIVHFVG	-0.0709

Sequence	soluble fraction (log2)
HMPLDISDDSKAVLKLLKNDSNELNTVKSASGLSNKKWDKTIKELTKNKIVSVSKTEDGLYIHLI	0.202
HMIDTTKILPGQEFKNMQELSVALTGQKMPAGKGYVLQQEKFKLYFSWKKITGTHKLIIDEIYEEPKT	-3.44
HMEVTLGLGSMVRLLGEPYLGSTGRVVELPDQAERFASGLTAKVAVVERHDGELIRVPVTNLLLME	-0.191
HMREKPRETFQRIAEKVGQTLRKGPVRVQQMDLLFSESREQVMEVLRAMAESGEIRIQDDTLHWNGHT	0.311
HMGNVGEAIEALVKGFQEGNQFQTLLGVTGSGKTFTMANVIAALNKPTLIISHNKTLAAQLYLSLIHIS	0.112
HMPHTDATDKQIIALILETLKDGQKHSVSEMTFPGIPREKTAQLLHQMIEEETVRIQNGVLFLPH	-0.109
HMKTEKYIQVISGTVNVRSGPGTSYAEIAKIDASQIYVVTAKEGEWLKISLANGTIGYVAGWLVKEVTG	-0.186
HMNIFKLYEENIGPLTPMIADILKEDEAEFPDYWIREAIEIAVKKNARNWKYVHAVLESWQKE	-3.38
HMQEISQEEALATVLKDLSLTEADLKDLQITREEDKYKILFSKGQTAYDVLVSAKDGQLLQSKQETI	-0.165
HMFEYDEIMEQSVPKIAWGSLLTIMKKASSHKEMLWYINETYKNGWSRSMVLNQIAMASYERSLIE	-0.851
HMDEDLQEALRKLNPIQANERKLLLKMLEQHRWNVSSVAKAFDVSRNTLYRRLHKLHIPLSNPSE	-0.417
HMTKNIIVTTSVKTSDELVEVAKNHALNLELDFNYRNKKTIKELLSSFDGLVVIYKNKISYFEDNSELF	0.0798
HMGMTNRIKELRKAKGYRQEDLAAALGVSRQTIIAVENNKYNPTLELAMKLARHLQTTVEELFQL	-0.758
HMLKIVRSREEVESRLYTIYGNVKGRRLYNFYLSLIIDGLDIVKARTSKNVYYTNIRNLKNAGIDFSQKIN	-2.38
HMNEFGIPDKKLQDIETRVNSMSLEQLNAARSMLIDEQEALNSSTGSASSGRLKEIAAELSTIQKALIAIA	0.163
HMDGAPVTVIKNGEVDVATTMRVGLSASELMFKLRAAGVDEVQIVHRAVLEQNGQLTIIKYGEE	0.0259
HMDTVIAEVTASILNLRRSAGTSSDIIGKLNKGEKVSIIGGSGNWKNVRTSGGITGWVYHEYLSTY	-0.623
HMGTRHPLPYAYARANTVLLEDDGDRLVLWAPENVSLTALGEVLRRFDVDALERESSSTLANRIAVAYAG	-0.751
HMGTTLTKIPGIGENRARLLLRHFGSLRAVREADADALAAVKGMTRPAAEAIVRYFEQQDAEGRRD	0.21
HMTTVSINTTGIITASTIRASSALYPPLYTTVQRDAGTFSAGAIIFNSTTSKLEFYDGTTWQSLPG	-0.106
HMRDDAIQQGREIVERELHRLDLAYTTLTDVLAKLEYEKLDDLYAAVGFGIRSPHSVAAAALQVERDKA	-0.569
HMRDYKTHLQEVLQSKGEVNIWYKLIDEKGPDHNKKFVMQVGIDSKILGFGEGKSKKEAEQVAARKALDNI	-0.118
HMQSMEIDENEIPSIDKLSEYIEYFKRIYNALFDDKQLAITNIDVLERHFANNFNTLRFKMDE	-0.0595
HMVEAIDQALIEKQIQAVLQENSAAVKKYQAGKTEVLAFLIGQSMRKIAKKVDANLVKNILLEQLKNK	0.0542
HMSKLQETEIPVALEVEKIPGLSNELKQKLLKIKPQTIGQASRISGITPAAISILMIYIKKNESISAVK	-1.57
HMVTFDEISQSLVRDVAARRSLSVQTLHAMVDRYNAGSSINAVANQYGIDRLKLREILIELGVHVAT	0.159

Sequence	soluble fraction (log2)
HMKKDLATYAYEHIKQMVIDRELMPGERIQQEVLARELGISRTPLVTALNRLASENLVELEANKGFSVRRF	-0.0386
HMWTIDPLDWKTENADQIVEKVMSEAKENAIILLHDRYEASVEAALRIVDLLKEQGYTFVTADKLV	-0.257
HMDINLGIGPLVKKYRTIKGYSIRELARNINVTASMLSQIERDIVNPSINTLKAISVELGVPMYKFFM	-2.33
HMQLGEEAGDELVAIVRSVINDNDKALADYLAGKSSALKFLLGQVMRQTKGRADHALVQSLLEAELEAL	-0.169
HMEMKHKNSQIFQAIKLKHMGFTPTQISEELRVSRTTINHWLTKAQLKDVKWEDIRENSADELVKLLFG	-0.229
HMASVLTGMLGRVTGELAPKGIVMVGNETWTAVSEDDSVIRIGEPVEVRSVEGLILTVFRRID	-2.53
HMLRQVSDSNALETAVKKVLDANPEEVERYKSGNKKLISFFVGQTMKATKGAGNPKEINSILAKLL	0.0186
HMQEPNYQPLMQNIKSQDLEEVTRLLSLNDVKFKIDHRTGLLLVESSRVYEAKMKLAATGITD	-0.224
HMGVNNDIIKHRKLEFMIEMLPDTFTRKEANEIGEGLGISLATLTRYLSSDAFERTGHGRYRKKD	-1.08
HMHHDDHNQQEEIKEKLLAMVADGERHHVTEVRQLDEDWDMVTKVMKELMDEEQLLMDGSYLILSA	-0.0951
HMIKNDIGKFIKLYRETHQWSQRELAEHLGVSQRNVSYYEKGERIPPADVLKKLSTLFDVPVDVLLGLK	-0.43
HMASLIGEEKALQIALEHAGVALENVAYSQVKLENDDGRWEYDTEFYSGSKEYDYEIDASTGEILGYDHD	-0.0337
HMGIRYQLADDVTDEQITAMTGKKAKIAAAIKAAGSAVSKMNVAGEMGYDKQNPINKDFMELVDAGIIVPS	0.00228
HMSLRGEKTYDEAHQKLIKSAVELFKNPLVSPEKITVSQIAKHAGVSVATAYNHFPENKLDIYGSIF	-0.071
HMVDPAEASKRAREYLDALPADDLKDVIRQFSATLAEGSVVLGYFQRSGLKSKVVKTALEQFVASTILSK	-0.167
HMGSVNDNVQKLTSQIGETTETGDTITPEDVELYKKMVDPLSTMAQKLEAAEILKLKGIIGSNGIIV	-0.0442
HMSGMEKLAIQEIEKEIKSFVKGDILIELTGKNRATAYVSEKNVGALIGKKGERINSIEKRLGVGIDVRPY	0.00444
HMIRQETYLLVRKAVGALPVQMRKIIELAMQGKKNAEIAAQLSISEGTVHTLKKTAYKKLRDRLQE	-2.22
HMVSPFQQQIADKVHNEIIAAKFNYDNATNENERLLAQLQAKKARELANQYGLDMSSYGADTTAERS	0.235
HMIMMTLGEKIRSIRKAKGMTQQELAEKLNTTKQTIGKYEKGIVTNLPLFRINELARALSTTPAYLTGW	-1.41
HMAGLKERLFYFIEYKGLTVQSFEKTVGLSNGAVSKMGDNTRRSTIDKISNFFGDLNKNWLLTGEGEMLI	-0.99
HMADRVFGHIPGVAVGSIFPDRRSLSQTGVHRPTQAGISGNKTDGADSIVVSGGYRDDRDYGDLIIYTG	-0.000463
HMTLTPEQQAARRSEIVDIALRLIAENGFQKTSMREIADLAKMGKSSLYDFFKTKDEIAVYAMEKK	-0.283
HMVGMDRYFKIKNIKDSSAAFERDYILHFLKENDWMVSKTAQMIGLERTTLYKKIKQLGLASMLEN	-2.85
